Reference: article PMC8202958 (Cell reports, 2021)
Residue numbers refer to the chain shown, from its start. Names and notes keep the numbering of the source.

T1: MBP-Ecm25-FL (full length, 1–599aa) (S. cerevisiae, UniProt P32525 1-599)
T1 sequence (looked up): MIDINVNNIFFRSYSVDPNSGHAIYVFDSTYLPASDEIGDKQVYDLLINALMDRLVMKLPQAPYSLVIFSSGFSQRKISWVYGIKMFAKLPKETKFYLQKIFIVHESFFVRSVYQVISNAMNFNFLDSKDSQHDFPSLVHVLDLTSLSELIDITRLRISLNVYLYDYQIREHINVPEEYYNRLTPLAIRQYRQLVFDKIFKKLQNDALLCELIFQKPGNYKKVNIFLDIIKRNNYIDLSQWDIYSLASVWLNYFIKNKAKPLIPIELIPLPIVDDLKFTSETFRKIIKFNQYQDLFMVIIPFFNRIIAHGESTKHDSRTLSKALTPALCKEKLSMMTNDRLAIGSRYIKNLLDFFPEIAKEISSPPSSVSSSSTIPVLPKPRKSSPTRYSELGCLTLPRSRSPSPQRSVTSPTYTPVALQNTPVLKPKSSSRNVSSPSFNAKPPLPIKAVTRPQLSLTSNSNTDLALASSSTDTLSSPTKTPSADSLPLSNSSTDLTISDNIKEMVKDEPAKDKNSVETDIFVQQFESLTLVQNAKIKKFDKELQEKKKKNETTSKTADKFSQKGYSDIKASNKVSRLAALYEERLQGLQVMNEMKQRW

T2: MBP-Ecm25-N-term+RhoGAP (1–360aa) (S. cerevisiae, UniProt P32525 1-360)
T2 sequence (looked up): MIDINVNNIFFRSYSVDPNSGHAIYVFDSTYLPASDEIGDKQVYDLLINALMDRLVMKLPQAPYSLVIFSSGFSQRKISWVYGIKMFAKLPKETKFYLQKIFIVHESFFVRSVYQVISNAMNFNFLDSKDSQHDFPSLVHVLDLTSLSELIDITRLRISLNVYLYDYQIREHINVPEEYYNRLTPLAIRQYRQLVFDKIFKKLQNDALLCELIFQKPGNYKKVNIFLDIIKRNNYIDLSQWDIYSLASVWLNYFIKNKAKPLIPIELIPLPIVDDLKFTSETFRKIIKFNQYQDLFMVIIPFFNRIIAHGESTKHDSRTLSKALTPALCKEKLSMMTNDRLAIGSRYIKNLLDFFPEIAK

B1: GST-Ysc84 (natural protein, S. cerevisiae, UniProt P32793 1-468, looked up)
chain: MGINNPIPRSLKSETKKAAKVLRSFVKPNQVFGADQVIPPYVLKRAKGLAIITVLKAGFLFSGRAGSGVIVARLKDGTWSAPSAIAMAGAGAGGMVGVELTDFVFILNSEEAVRSFSEFGTITLGGNVSVSAGPLGRSAEAAASASTGGVSAVFAYSKSKGLFAGVSVEGSAILERREANRKFYGDNCTSKMILSGRVKVPPAADPLLRILESRAFNFTRHDHDDNASGDDFYDDGQYSDNTSHYYDDIPDSFDSTDESSTRPNTRSSRRRGMSLGSRSRYDDDYDDDGYGRGRGYGDFDSEDEDYDYGRSPNRNSSRNRGPQIDRGTKPRANTRWEDDLYDRDTEYSRPNHSGRDYDNTRGNRRGYGRERGYSLGHGPTHPSNMSNVDDLSHKMSKTGLGNESTATNSATPTAVALYNFAGEQPGDLAFKKGDVITILKKSDSQNDWWTGRTNGKEGIFPANYVRVS
B2: GST-Sla1(1–420aa, W41S) (domain or fragment, S. cerevisiae, UniProt P32790 1-420, looked up)
chain: MTVFLGIYRAVYAYEPQTPEELAIQEDDLLYLLQKSDIDDSWTVKKRVIGSDSEEPVGLVPSTYIEEAPVLKKVRAIYDYEQVQNADEELTFHENDVFDVFDDKDADWLLVKSTVSNEFGFIPGNYVEPENGSTSKQEQAPAAAEAPAATPAAAPASAAVLPTNFLPPPQHNDRARMMQSKEDQAPDEDEEGPPPAMPARPTATTETTDATAAAVRSRTRLSYSDNDNDDEEDDYYYNSNSNNVGNHEYNTEYHSWNVTEIEGRKKKKAKLSIGNNKINFIPQKGTPHEWSIDKLVSYDNEKKHMFLEFVDPYRSLELHTGNTTTCEEIMNIIGEYKGASRDPGLREVEMASKSKKRGIVQYDFMAESQDELTIKSGDKVYILDDKKSKDWWMCQLVDSGKSGLVPAQFIEPVRDKKHTE
B3: GST-Sla1(1–420aa, W108S) (domain or fragment, S. cerevisiae, UniProt P32790 1-420, looked up)
chain: B2 chain with S41W, W108S
B4: GST-Lsb3 (natural protein, S. cerevisiae, UniProt P43603 1-459, looked up)
chain: MGINNPIPRSLKSETKKAAKILASFVKPNQVFGADQVIPPDVLKRAKGLAIITILKAGFLFSGRAGSGVIVARLKDGTWSAPSAIAMAGAGAGGMVGIELTDFVFILNTQDAVKSFSEFGTITLGGNVSVSAGPLGRSAEAAASASAGGVAAVFAYSKSKGLFAGVSVEGSAIIERREANRKFYGDNCTAKMILSGRIRPPPAVDPLFRVLESRAFNYRPSNGGRGSFDDDEDDYYDDDDYYNDIPSSFSSTDASSTRPNTRSTRRRAQSGSRYTFDDDDDDDDYGTGYSRNSRLAPTNSGGSGGKLDDPSGASSYYASHRRSGTAQSRARSSRNRWADDEYDDYDDDYESGYRRGNGRDRTKDREVDDLSNRFSKSRISSASTPQTSQGRFTAPTSPSTSSPKAVALYSFAGEESGDLPFRKGDVITILKKSDSQNDWWTGRVNGREGIFPANYVELV
B5: GST-Cdc42(T17N) (natural protein)
chain: not shown
B6: GST-Cdc42(Q61L) (natural protein)
chain: not shown
B7: GST-Cdc42 (natural protein)
chain: not shown

Molecular target: T1, MBP-Ecm25-FL (full length, 1–599aa)
Assay: pull-down

Row | binding result | Binder
1 | binds | B1
2 | binds | B2
3 | binds | B3
4 | binds | B4

Molecular target: T2, MBP-Ecm25-N-term+RhoGAP (1–360aa)
Assay: pull-down

Row | binding result | Binder
5 | binds | B5
6 | binds | B6
7 | binds | B7
